{"source": "paper PMC9351455", "test": "35S pulse-chase, HA immunoprecipitation from lysate and media", "details": "glycan lost; control: wild type Cab45-HA"}
{"protein": "Cab45: Cab45-N40G (protein) parent chain: MVWPWVAMASRWGPLIGLAPCCLWLLGAVLLMDASARPANHSSTRERVANREENEILPPDHLNGVKLEMDGHLNRGFHQEVFLGKDLGGFDEDAEPRRSRRKLMVIFSKVDVNTDRKISAKEMQRWIMEKTAEHFQEAMEESKTHFRAVDPDGDGHVSWDEYKVKFLASKGHSEKEVADAIRLNEELKVDEETQEVLENLKDRWYQADSPPADLLLTEEEFLSFLHPEHSRGMLRFMVKEIVRDLDQDGDKQLSVPEFISLPVGTVENQQGQDIDDNWVKDRKKEFEELIDSNHDGIVTAEELESYMDPMNEYNALNEAKQMIAVADENQNHHLEPEEVLKYSEFFTGSKLVDYARSVHEEF", "values": [{"measurement": "expression_or_secretion", "result": "no change"}]}
